Experimental data from the RNAGym collection of RNA variant scans (doi:10.1021/acssynbio.7b00057).

B1: Pistol ribozyme (parent)
chain: GGGUCGUUGUUCCAUAAUCGCGUGGAUAUGGCACGCAAGUUUCUACCGGGCACCGUAAAUGUCCGACUGGAGCCGUUCGGGCGGCUAUAAACAGACCUCAGGCCCGAAGCGUGGCGGCACCUGCCGCCGGUGGUAAAAAAGAUCGGAAGAGCACACGUCU

Variants of: B1
Assay: aptazyme ON/OFF ratio, guanine; higher = stronger switching; co-transcriptional cleavage with and without guanine

Which “aptazyme ON/OFF ratio” value does the source give for GGGUCGGCCAUCCAUAAUCGCGUGGAUAUGGCACGCAAGUUUCUACCGGGCACCGUAAAUGUCCGACUGGAGCCGUUCGGGCGGCUAUAAACAGACCUCAGGCCCGAAGCGUGGCGGCACCUGCCGCCGGUGGUAAAAAAGAUCGGAAGAGCACACGUCU [U7G U8C G9C U10A] here?
The value was 2.18.

With GGGUCGGCAUGCUAUAAUCGCGUGGAUAUGGCACGCAAGUUUCUACCGGGCACCGUAAAUGUCCGACUGGAGCCGUUCGGGCGGCUAUAAACAGACCUCAGGCCCGAAGCGUGGCGGCACCUGCCGCCGGUGGUAAAAAAGAUCGGAAGAGCACACGUCU [U7G U8C G9A U11G C13U] as the variant, how does the “aptazyme ON/OFF ratio” value read?
Its value is 1.19.

For GGGUCGGCAUGCGAUAAUCGCGUGGAUAUGGCACGCAAGUUUCUACCGGGCACCGUAAAUGUCCGACUGGAGCCGUUCGGGCGGCUAUAAACAGACCUCAGGCCCGAAGCGUGGCGGCACCUGCCGCCGGUGGUAAAAAAGAUCGGAAGAGCACACGUCU [U7G U8C G9A U11G C13G], which “aptazyme ON/OFF ratio” value is on record?
The value was 1.09.

Which “aptazyme ON/OFF ratio” value does the source give for GGGUCGGCAUGCAAUAAUCGCGUGGAUAUGGCACGCAAGUUUCUACCGGGCACCGUAAAUGUCCGACUGGAGCCGUUCGGGCGGCUAUAAACAGACCUCAGGCCCGAAGCGUGGCGGCACCUGCCGCCGGUGGUAAAAAAGAUCGGAAGAGCACACGUCU [U7G U8C G9A U11G C13A] here?
Its value is 1.14.

With GGGUCGGCAUGUUAUAAUCGCGUGGAUAUGGCACGCAAGUUUCUACCGGGCACCGUAAAUGUCCGACUGGAGCCGUUCGGGCGGCUAUAAACAGACCUCAGGCCCGAAGCGUGGCGGCACCUGCCGCCGGUGGUAAAAAAGAUCGGAAGAGCACACGUCU [U7G U8C G9A U11G C12U C13U] as the variant, how does the “aptazyme ON/OFF ratio” value read?
The value was 1.18.

Which “aptazyme ON/OFF ratio” value does the source give for GGGUCGGCAUGUGAUAAUCGCGUGGAUAUGGCACGCAAGUUUCUACCGGGCACCGUAAAUGUCCGACUGGAGCCGUUCGGGCGGCUAUAAACAGACCUCAGGCCCGAAGCGUGGCGGCACCUGCCGCCGGUGGUAAAAAAGAUCGGAAGAGCACACGUCU [U7G U8C G9A U11G C12U C13G] here?
The value was 1.07.

Which “aptazyme ON/OFF ratio” value does the source give for GGGUCGGCAUGUAAUAAUCGCGUGGAUAUGGCACGCAAGUUUCUACCGGGCACCGUAAAUGUCCGACUGGAGCCGUUCGGGCGGCUAUAAACAGACCUCAGGCCCGAAGCGUGGCGGCACCUGCCGCCGGUGGUAAAAAAGAUCGGAAGAGCACACGUCU [U7G U8C G9A U11G C12U C13A] here?
Its value is 1.11.

With GGGUCGGCCUUUAAUAAUCGCGUGGAUAUGGCACGCAAGUUUCUACCGGGCACCGUAAAUGUCCGACUGGAGCCGUUCGGGCGGCUAUAAACAGACCUCAGGCCCGAAGCGUGGCGGCACCUGCCGCCGGUGGUAAAAAAGAUCGGAAGAGCACACGUCU [U7G U8C G9C C12U C13A] as the variant, how does the “aptazyme ON/OFF ratio” value read?
Its value is 1.1.

Which “aptazyme ON/OFF ratio” value does the source give for GGGUCGGCCUUUUAUAAUCGCGUGGAUAUGGCACGCAAGUUUCUACCGGGCACCGUAAAUGUCCGACUGGAGCCGUUCGGGCGGCUAUAAACAGACCUCAGGCCCGAAGCGUGGCGGCACCUGCCGCCGGUGGUAAAAAAGAUCGGAAGAGCACACGUCU [U7G U8C G9C C12U C13U] here?
Its value is 1.21.

With GGGUCGGCCUUUGAUAAUCGCGUGGAUAUGGCACGCAAGUUUCUACCGGGCACCGUAAAUGUCCGACUGGAGCCGUUCGGGCGGCUAUAAACAGACCUCAGGCCCGAAGCGUGGCGGCACCUGCCGCCGGUGGUAAAAAAGAUCGGAAGAGCACACGUCU [U7G U8C G9C C12U C13G] as the variant, how does the “aptazyme ON/OFF ratio” value read?
The value was 1.12.

For GGGUCGGCAUGGGAUAAUCGCGUGGAUAUGGCACGCAAGUUUCUACCGGGCACCGUAAAUGUCCGACUGGAGCCGUUCGGGCGGCUAUAAACAGACCUCAGGCCCGAAGCGUGGCGGCACCUGCCGCCGGUGGUAAAAAAGAUCGGAAGAGCACACGUCU [U7G U8C G9A U11G C12G C13G], which “aptazyme ON/OFF ratio” value is on record?
The value was 1.08.

Which “aptazyme ON/OFF ratio” value does the source give for GGGUCGGCAUGGUAUAAUCGCGUGGAUAUGGCACGCAAGUUUCUACCGGGCACCGUAAAUGUCCGACUGGAGCCGUUCGGGCGGCUAUAAACAGACCUCAGGCCCGAAGCGUGGCGGCACCUGCCGCCGGUGGUAAAAAAGAUCGGAAGAGCACACGUCU [U7G U8C G9A U11G C12G C13U] here?
The value was 1.05.

Which “aptazyme ON/OFF ratio” value does the source give for GGGUCGGCAUGGAAUAAUCGCGUGGAUAUGGCACGCAAGUUUCUACCGGGCACCGUAAAUGUCCGACUGGAGCCGUUCGGGCGGCUAUAAACAGACCUCAGGCCCGAAGCGUGGCGGCACCUGCCGCCGGUGGUAAAAAAGAUCGGAAGAGCACACGUCU [U7G U8C G9A U11G C12G C13A] here?
The value was 1.07.

With GGGUCGGCCAUAUAUAAUCGCGUGGAUAUGGCACGCAAGUUUCUACCGGGCACCGUAAAUGUCCGACUGGAGCCGUUCGGGCGGCUAUAAACAGACCUCAGGCCCGAAGCGUGGCGGCACCUGCCGCCGGUGGUAAAAAAGAUCGGAAGAGCACACGUCU [U7G U8C G9C U10A C12A C13U] as the variant, how does the “aptazyme ON/OFF ratio” value read?
The value was 1.05.

With GGGUCGGCCAUAGAUAAUCGCGUGGAUAUGGCACGCAAGUUUCUACCGGGCACCGUAAAUGUCCGACUGGAGCCGUUCGGGCGGCUAUAAACAGACCUCAGGCCCGAAGCGUGGCGGCACCUGCCGCCGGUGGUAAAAAAGAUCGGAAGAGCACACGUCU [U7G U8C G9C U10A C12A C13G] as the variant, how does the “aptazyme ON/OFF ratio” value read?
Its value is 1.08.

With GGGUCGGCCAUAAAUAAUCGCGUGGAUAUGGCACGCAAGUUUCUACCGGGCACCGUAAAUGUCCGACUGGAGCCGUUCGGGCGGCUAUAAACAGACCUCAGGCCCGAAGCGUGGCGGCACCUGCCGCCGGUGGUAAAAAAGAUCGGAAGAGCACACGUCU [U7G U8C G9C U10A C12A C13A] as the variant, how does the “aptazyme ON/OFF ratio” value read?
The value was 1.08.

With GGGUCGGCCUUCUAUAAUCGCGUGGAUAUGGCACGCAAGUUUCUACCGGGCACCGUAAAUGUCCGACUGGAGCCGUUCGGGCGGCUAUAAACAGACCUCAGGCCCGAAGCGUGGCGGCACCUGCCGCCGGUGGUAAAAAAGAUCGGAAGAGCACACGUCU [U7G U8C G9C C13U] as the variant, how does the “aptazyme ON/OFF ratio” value read?
The value was 1.15.

Which “aptazyme ON/OFF ratio” value does the source give for GGGUCGGCCUUCAAUAAUCGCGUGGAUAUGGCACGCAAGUUUCUACCGGGCACCGUAAAUGUCCGACUGGAGCCGUUCGGGCGGCUAUAAACAGACCUCAGGCCCGAAGCGUGGCGGCACCUGCCGCCGGUGGUAAAAAAGAUCGGAAGAGCACACGUCU [U7G U8C G9C C13A] here?
Its value is 1.11.
